Reference: article PMC3003327

How the values were obtained:
[1] = biological target: actin filaments (F-actin) of Acanthamoeba castellani cytoplasmic actin (Acanthamoeba castellani); experiment: single-molecule TIRF microscopy
[2] = biological target: actin filaments (F-actin) of Acanthamoeba castellani cytoplasmic actin (Acanthamoeba castellani); experiment: single-filament TIRF elongation rate against VASP concentration

| Substance | dwell time at the growing barbed end with 1 µM actin [1] | dwell time τ1 (single exponential fit without the static molecules) [1] | dwell time τ1 on filament regions with p(ADP-Pi) < 0.5 [1] | dwell time τ1 on filament regions with p(ADP-Pi) > 0.5 [1] | dwell time τ1 on the sides of growing filaments [1] | dwell time τ2 (static binding; double exponential fit of all interactions) [1] | Kd [2] |
| --- | --- | --- | --- | --- | --- | --- | --- |
| Cy3-KCK-hVASP^1-380aa (C7S, C64S, C334A) (from UniProt P50552 1-380) (natural protein) | 1.45 s | 0.44 s | 1 s | 0.93 s | 0.22 s | 4.99 s |  |
| human VASP^1-380aa, unlabeled wild type (untagged hVASP^1-380aa) (from UniProt P50552 1-380) (natural protein) |  |  |  |  |  |  | 9.2 nM |
